Experimental data taken from the supplement of paper PMC12338614.
± gives the uncertainty stated by the source.

B1: library; numbered along this chain (parent)
chain: MEVVDPQQLGMFTEGELMSVGMDTFIHRIDSTEVIYQPRRKRAKLIGKYLMGDLLGEGSYGKVKEVLDSETLCRRAVKILKKKKLRRIPNGEANVKKEIQLLRRLRHKNVIQLVDVLYNEEKQKMYMVMEYCVCGMQEMLDSVPEKRFPVCQAHGYFCQLIDGLEYLHSQGIVHKDIKPGNLLLTTGGTLKISDLGVAEALHPFAADDTCRTSQGSPAFQPPEIANGLDTFSGFKVDIWSAGVTLYNITTGLYPFEGDNIYKLFENIGKGSYAIPGDCGPPLSDLLKGMLEYEPAKRFSIRQIRQHSWFRKKHPPAEAPVPIPPSPDTKDRWRSMTVVPYLEDLHGADEDEDLFDIEDDIIYTQDFTVPGQVPEEEASHNGQRRGLPKAVCMNGTEAAQLSTKSRAEGRAPNPARKACSASSKIRRLSACKQQ

Variants of: B1
Experiment: STK11 functional score (HeLa growth suppression), rescaled enrichment; synonymous median = 1, nonsense median = 0 (normalised score)
Conditions: with HeLa; variant type: missense
Outline: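 HeLa cells carrying an AAVS1 landing pad received codon-optimised STK11 libraries made by codon randomisation (POPCode), integrated by Bxb1, with three regions each transfected three times. Integrants that were BFP-negative and mCherry-positive were sorted by FACS 4–5 days after electroporation and then grown for about two weeks. Tiled amplicons from gDNA were sequenced on NextSeq at ~2 million reads per tile. The functional score is a wild-type-corrected log ratio of post- to pre-selection counts, rescaled to the synonymous and nonsense medians, merged across codons and replicate transfections, and given a bootstrapped error.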

Variant	STK11 functional score
M51Y	1.62 ± 0.27
L427V	1.21 ± 0.27
Q364W	0.791 ± 0.5
E375N	1.47 ± 0.16
L386R	1.43 ± 0.25
R74T	-0.214 ± 0.22
E375W	1.54 ± 0.31
R409S	1.02 ± 0.27
A241C	1.21 ± 0.1
M18G	1.36 ± 0.22
E223V	0.469 ± 0.15
L160W	0.0949 ± 0.08
L164S	0.135 ± 0.1
Y36R	1.3 ± 0.59
G227V	0.625 ± 0.1
D365I	1.47 ± 0.25
A397P	1.18 ± 0.49
A398F	1.12 ± 0.42
K388F	1.24 ± 0.4
P413G	1.56 ± 0.22
G227P	1.1 ± 0.52
D350H	1.27 ± 0.29
L183E	0.3 ± 0.082
G251Y	0.258 ± 0.24

Variant	STK11 functional score
S59C	0.952 ± 0.27
L113S	0.517 ± 0.11
K287D	1.27 ± 0.18
G180A	1.34 ± 0.32
Y253S	0.394 ± 0.12
E130I	0.376 ± 0.28
G385P	1.26 ± 0.32
Q302H	1.12 ± 0.3
K329R	0.535 ± 0.3
S401V	1.41 ± 0.24
T244F	0.698 ± 0.082
L427Y	0.805 ± 0.33
P369S	1.51 ± 0.22
D30H	1.31 ± 0.68
H202M	1.19 ± 0.31
Y166L	0.75 ± 0.13
V390A	1.51 ± 0.31
I424W	0.789 ± 0.13
V114R	0.501 ± 0.086
D162C	1.28 ± 0.15
M51L	0.806 ± 0.15
P326M	1.45 ± 0.12
E342N	1.4 ± 0.14
D284N	1.29 ± 0.37

Variant	STK11 functional score
A410L	1.42 ± 0.2
R103A	1.42 ± 0.15
S19H	0.00479 ± 0.13
S334E	1.53 ± 0.17
E396R	1.53 ± 0.22
Q7M	0.16 ± 0.091
Q305H	0.99 ± 0.61
E291M	1.66 ± 0.17
A377Q	1.59 ± 0.23
L353H	1.4 ± 0.68
G242L	-0.0195 ± 0.092
S69V	0.644 ± 0.16
K287R	0.533 ± 0.14
V173Y	1.04 ± 0.13
T212V	0.545 ± 0.091
H27M	1.63 ± 0.12
T363I	0.824 ± 0.19
I424T	1.49 ± 0.18
T363M	1.59 ± 0.17
F298S	0.975 ± 0.27
Q37S	1.34 ± 0.13
K403N	1.42 ± 0.6
F231R	1.26 ± 0.52
Y261C	0.999 ± 0.41

Variant	STK11 functional score
A398D	1.18 ± 0.25
I224R	1.04 ± 0.17
V338L	1.39 ± 0.22
K48V	1.24 ± 0.42
N109D	0.477 ± 0.18
R147V	0.547 ± 0.098
E98T	0.259 ± 0.093
H107P	0.25 ± 0.083
E57Y	0.95 ± 0.39
R297G	-0.132 ± 0.076
G180E	1.09 ± 0.67
K312C	1.17 ± 0.52
F264Y	1.06 ± 0.16
S401H	1.49 ± 0.16
K146A	1.29 ± 0.39
S31R	1.54 ± 0.28
Y272V	0.735 ± 0.11
E2K	1.16 ± 0.78
P294N	0.433 ± 0.32
L290H	-0.09 ± 0.07
A206F	0.495 ± 0.22
I88G	0.665 ± 0.23
H168N	0.275 ± 0.12
K262I	0.763 ± 0.14

Variant	STK11 functional score
W308R	-0.166 ± 0.096
L45M	1.25 ± 0.08
L195D	1.64 ± 0.15
T24V	0.875 ± 0.17
R310L	1.37 ± 0.27
I267L	0.603 ± 0.12
T209W	1.28 ± 0.47
C210K	1.3 ± 0.49
P339M	1.62 ± 0.14
M139T	1.18 ± 0.53
H154V	0.314 ± 0.077
T363P	1.34 ± 0.17
L427E	1.53 ± 0.25
A414R	1.58 ± 0.31
Y362T	1.6 ± 0.14
A295V	1.17 ± 0.28
R425H	1.56 ± 0.17
M136W	-0.224 ± 0.078
D327A	1.28 ± 0.52
G227F	1.14 ± 0.12
R409L	1.02 ± 0.54
T249P	-0.0108 ± 0.27
L183G	0.551 ± 0.24
P6R	1.29 ± 0.12

Variant	STK11 functional score
K78P	-0.226 ± 0.12
P315Y	1.29 ± 0.08
R333G	1.47 ± 0.27
D176Y	-0.343 ± 0.096
P339C	1.59 ± 0.11
R106M	1.59 ± 0.17
V143P	-0.133 ± 0.082
T363V	1.2 ± 0.16
L85T	-0.0975 ± 0.19
M335R	1.46 ± 0.3
G276F	0.884 ± 0.19
N109G	0.374 ± 0.15
N266G	0.477 ± 0.1
P339R	1.16 ± 0.52
D258E	0.739 ± 0.3
F148Q	0.0904 ± 0.082
L167V	1.15 ± 0.2
R74P	1.27 ± 0.19
P321R	1.26 ± 0.26
I192N	1.23 ± 0.67
E165T	0.129 ± 0.15
K262F	0.714 ± 0.098
K97G	0.699 ± 0.38
L55C	1.43 ± 0.52

Variant	STK11 functional score
V338I	1.47 ± 0.31
H202N	0.176 ± 0.17
L80E	1.41 ± 0.38
L282H	0.737 ± 0.71
K62C	1.4 ± 0.35
K269R	1.22 ± 0.28
R384M	1.36 ± 0.16
Q371C	1.36 ± 0.37
K175T	1.07 ± 0.18
H107L	0.324 ± 0.13
E98Y	0.182 ± 0.18
A410G	1.23 ± 0.24
Q305S	0.954 ± 0.59
T250H	1.65 ± 0.24
L400Q	1.27 ± 0.42
Y49Q	0.0367 ± 0.35
I224Q	0.698 ± 0.65
P373D	1.58 ± 0.32
F234I	1.67 ± 0.4
E349Q	1.16 ± 0.57
P326S	1.36 ± 0.17
F219G	0.713 ± 0.29
L72T	1.44 ± 0.48
